Laboratory results from patent US20210380679A1 (INHIBRX BIOSCIENCES, published 2021).

T1: human DLL3 (Delta-like ligand 3) (human, UniProt Q9NYJ7 27-618)
T1 construct: endogenous on SHP-77 cells; also called cell-surface DLL3
T1 sequence: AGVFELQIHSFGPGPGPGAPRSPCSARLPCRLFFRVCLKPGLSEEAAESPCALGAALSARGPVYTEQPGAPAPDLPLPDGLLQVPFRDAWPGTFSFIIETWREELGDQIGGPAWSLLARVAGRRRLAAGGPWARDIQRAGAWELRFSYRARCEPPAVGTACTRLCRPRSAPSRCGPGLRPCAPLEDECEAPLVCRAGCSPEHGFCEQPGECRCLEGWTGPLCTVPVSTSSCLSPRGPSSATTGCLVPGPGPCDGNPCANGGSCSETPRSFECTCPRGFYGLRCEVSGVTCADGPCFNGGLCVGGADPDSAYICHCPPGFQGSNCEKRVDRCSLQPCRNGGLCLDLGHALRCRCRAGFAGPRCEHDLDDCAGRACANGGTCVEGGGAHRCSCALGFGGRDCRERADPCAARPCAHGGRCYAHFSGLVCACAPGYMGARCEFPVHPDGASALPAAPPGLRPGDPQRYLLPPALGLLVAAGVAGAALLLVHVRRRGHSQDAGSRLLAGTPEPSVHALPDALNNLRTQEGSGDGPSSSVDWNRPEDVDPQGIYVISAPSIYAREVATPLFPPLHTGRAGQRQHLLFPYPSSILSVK


Columns and labels:
[1] = molecular target: T1, human DLL3 (Delta-like ligand 3); test: flow cytometry of secreted sdAb-Fc on SHP-77 cells
[2] = molecular target: T2, CD3 on the surface of T cells (human, UniProt P07766 23-207); test: flow cytometry, construct titrated on isolated primary T cells, fluorophore-conjugated anti-human IgG Fc secondary
T2 construct: whole, on cells; multi-chain complex; also called CD3 epsilon
T2 sequence (P07766 23-207): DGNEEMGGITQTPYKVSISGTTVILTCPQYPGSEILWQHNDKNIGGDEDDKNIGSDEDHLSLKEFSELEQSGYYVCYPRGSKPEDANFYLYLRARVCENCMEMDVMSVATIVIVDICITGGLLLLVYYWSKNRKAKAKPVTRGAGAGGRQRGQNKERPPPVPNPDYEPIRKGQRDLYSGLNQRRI
Description: (§1) Binding of exemplary multispecific polypeptide constructs of the disclosure containing an antigen-binding domain directed against DLL3 to CD3 on the surface of primary T cells and to DLL3 expressing cells (SHP-77) was assessed by flow cytometry. […] These binding assays were conducted by flow cytometry, wherein bound constructs were detected using a fluorophore-conjugated anti-human IgG Fc secondary antibody.

[3] = molecular target: T1, human DLL3 (Delta-like ligand 3); test: flow cytometry, construct titrated on SHP-77 cells (DLL3 positive), fluorophore-conjugated anti-human IgG Fc secondary
Description: as §1

| Binder | binding result [1] | binding result [2] | binding result [3] |
| --- | --- | --- | --- |
| 6A1 (Fc fusion, tested as VHH-human Fc; Fc not specified) VHH: QVQLVQSGGGLVQAGGSLRLSCAASGFSLDDYTIGWFRQAPGKEREGVSCISSSGGSTVHADSVKGRFTISRDNAKNTVWLQMNSLKPEDTAVYYCATWCGVATMTEDLPFDYWGQGTLVTVKP | binds |  |  |
| cx5352 (bispecific antibody) chain 1: EVQLVESGGGEVQPGGSLRLSCAASGSIFSINAMGWYRQAPGKQRELVAGFTGDTNTIYAESVKGRFTISRDNAKNTVYLQMSSLRAEDTAVYYCAADVQLFSRDYEFYWGQGTLVTVKPDKTHTCPPCPAPGGPSVFLFPPKPKDTLMISRTPEVTCVVVDVSHEDPEVKFNWYVDGVEVHNAKTKPREEQYNSTYRVVSVLTVLHQDWLNGKEYKCKVSNKALPAPIEKTISKAKGQPREPQVYTLPPCRDELTKNQVSLWCLVKGFYPSDIAVEWESNGQPENNYKTTPPVLDSDGSFFLYSKLTVDKSRWQQGNVFSCSVMHEALHNHYTQKSLSLSPTGGGGGSGGGGGSGGGGGSEVQLVESGGGLVQPGGSLRLSCAASGFTFNTYAMNWVRQAPGKCLEWVARIRSKYNNYATYYADSVKGRFTISRDDAKNTLYLQMSSLRAEDTAVYYCVRHGNFGNSYVSWFAYWGQGTLVTVKPEVQLVESGGGEVQPGGSLRLSCGPSEIITSDKSMGWVRQAPGKQRNLVAGISNVGSTNYAQSVKGRFTISRDNAKNTVYLQMSSLRAEDTAVYYCYARDFENEYWGQGTLVTVKP chain 2: DKTHTCPPCPAPGGPSVFLFPPKPKDTLMISRTPEVTCVVVDVSHEDPEVKFNWYVDGVEVHNAKTKPREEQYNSTYRVVSVLTVLHQDWLNGKEYKCKVSNKALPAPIEKTISKAKGQPREPQVCTLPPSRDELTKNQVSLSCAVKGFYPSDIAVEWESNGQPENNYKTTPPVLDSDGSFFLVSKLTVDKSRWQQGNVFSCSVMHEALHNRYTQKSLSLSPTGGGGGSGGGGGSGGGGGSQAVVTQEPSLTVSPGGTVTLTCGSSTGAVTTSNYANWVQQKPGQAFRGLIGGTNKRAPGVPARFSGSLLGGKAALTISGAQPEDEADYYCALWYSNHWVFGCGTKLEIKEVQLLESGGGEVQPGGSLRLSCAASGFSFSINAMGWYRQAPGKRREFVAAIESGRNTVYAESVKGRFTISRDNAKNTVYLQMSSLRAEDTAVYYCGLLKGNRVVSPSVAYWGQGTLVTVKP |  | no binding (tested: about 67 nM) | binds |
| cx5801 (bispecific antibody, monovalent for DLL3; junction linkers not placed) chain 1: DKTHTCPPCPAPGGPSVFLFPPKPKDTLMISRTPEVTCVVVDVSHEDPEVKFNWYVDGVEVHNAKTKPREEQYNSTYRVVSVLTVLHQDWLNGKEYKCKVSNKALPAPIEKTISKAKGQPREPQVYTLPPCRDELTKNQVSLWCLVKGFYPSDIAVEWESNGQPENNYKTTPPVLDSDGSFFLYSKLTVDKSRWQQGNVFSCSVMHEALHNHYTQKSLSLSPTGGGGGSGGGGGSGGGGGSEVQLVESGGGLVQPGGSLRLSCAASGFTFNTYAMNWVRQAPGKCLEWVARIRSKYNNYATYYADSVKGRFTISRDDAKNTLYLQMSSLRAEDTAVYYCVRHGNFGNSYVSWFAYWGQGTLVTVKPEVQLVESGGGEVQPGGSLRLSCGPSEIITSDKSMGWVRQAPGKQRNLVAGISNVGSTNYAQSVKGRFTISRDNAKNTVYLQMSSLRAEDTAVYYCYARDFENEYWGQGTLVTVKP chain 2: DKTHTCPPCPAPGGPSVFLFPPKPKDTLMISRTPEVTCVVVDVSHEDPEVKFNWYVDGVEVHNAKTKPREEQYNSTYRVVSVLTVLHQDWLNGKEYKCKVSNKALPAPIEKTISKAKGQPREPQVCTLPPSRDELTKNQVSLSCAVKGFYPSDIAVEWESNGQPENNYKTTPPVLDSDGSFFLVSKLTVDKSRWQQGNVFSCSVMHEALHNRYTQKSLSLSPTGGGGGSGGGGGSGGGGGSQAVVTQEPSLTVSPGGTVTLTCGSSTGAVTTSNYANWVQQKPGQAFRGLIGGTNKRAPGVPARFSGSLLGGKAALTISGAQPEDEADYYCALWYSNHWVFGCGTKLEIKEVQLLESGGGEVQPGGSLRLSCAASGFSFSINAMGWYRQAPGKRREFVAAIESGRNTVYAESVKGRFTISRDNAKNTVYLQMSSLRAEDTAVYYCGLLKGNRVVSPSVAYWGQGTLVTVKP |  | no binding (tested: about 67 nM) | binds |
| cx5800 (bispecific antibody, monovalent for DLL3; junction linkers not placed) chain 1: EVQLVESGGGEVQPGGSLRLSCAASGSIFSINAMGWYRQAPGKQRELVAGFTGDTNTIYAESVKGRFTISRDNAKNTVYLQMSSLRAEDTAVYYCAADVQLFSRDYEFYWGQGTLVTVKPDKTHTCPPCPAPGGPSVFLFPPKPKDTLMISRTPEVTCVVVDVSHEDPEVKFNWYVDGVEVHNAKTKPREEQYNSTYRVVSVLTVLHQDWLNGKEYKCKVSNKALPAPIEKTISKAKGQPREPQVYTLPPCRDELTKNQVSLWCLVKGFYPSDIAVEWESNGQPENNYKTTPPVLDSDGSFFLYSKLTVDKSRWQQGNVFSCSVMHEALHNHYTQKSLSLSPTGGGGGSGGGGGSGGGGGSEVQLVESGGGLVQPGGSLRLSCAASGFTFNTYAMNWVRQAPGKCLEWVARIRSKYNNYATYYADSVKGRFTISRDDAKNTLYLQMSSLRAEDTAVYYCVRHGNFGNSYVSWFAYWGQGTLVTVKP chain 2: DKTHTCPPCPAPGGPSVFLFPPKPKDTLMISRTPEVTCVVVDVSHEDPEVKFNWYVDGVEVHNAKTKPREEQYNSTYRVVSVLTVLHQDWLNGKEYKCKVSNKALPAPIEKTISKAKGQPREPQVCTLPPSRDELTKNQVSLSCAVKGFYPSDIAVEWESNGQPENNYKTTPPVLDSDGSFFLVSKLTVDKSRWQQGNVFSCSVMHEALHNRYTQKSLSLSPTGGGGGSGGGGGSGGGGGSQAVVTQEPSLTVSPGGTVTLTCGSSTGAVTTSNYANWVQQKPGQAFRGLIGGTNKRAPGVPARFSGSLLGGKAALTISGAQPEDEADYYCALWYSNHWVFGCGTKLEIKEVQLLESGGGEVQPGGSLRLSCAASGFSFSINAMGWYRQAPGKRREFVAAIESGRNTVYAESVKGRFTISRDNAKNTVYLQMSSLRAEDTAVYYCGLLKGNRVVSPSVAYWGQGTLVTVKP |  | no binding (tested: about 67 nM) | binds |
